Measured values reported in the RNAGym collection of RNA variant scans (doi:10.7554/elife.80360).

B1: Hammerhead Ribozyme (parent)
chain: ACCGGAUGUGCUUUCCGGUCUGAUGAGUCCGUGAGGACGAAACAG

Variants of: B1
Assay: self-cleavage, relative activity (ratio to wild type); higher = more cleavage; co-transcriptional

| Variant | self-cleavage |
| --- | --- |
| ACCGGAUGUGCUUUCCGGUCAGAUGAGUCCGUGAGGACGAAACAU [U21A G45U] | 0.432 |
| ACCGGAUGUGCAUUCCGGUCGGAUGAGUCCGUGAGGACGAAACAG [U12A U21G] | 0.425 |
| UCCGGAUGUGCUUUCCGGUAUGAUGAGUCCGUGAGGACGAAACAG [A1U C20A] | 0.37 |
| ACCGGAUGUGCUUUCCGCUCUGAUGAGUCCGUGAGGACGAAACAU [G18C G45U] | 0.374 |
| ACCCGAUGUGCUUUCCGAUCUGAUGAGUCCGUGAGGACGAAACAG [G4C G18A] | 0.303 |
| ACCGGAUGUGCUUUCCGGUGUGAGGAGUCCGUGAGGACGAAACAG [C20G U24G] | 0.353 |
| ACCGGAUGUGCUUUCUGGUGUGAUGAGUCCGUGAGGACGAAACAG [C16U C20G] | 0.307 |
| ACUGGAUGUGCUUUCCGGUCUGAUGAGUCCGGGAGGACGAAACAG [C3U U32G] | 0.452 |
| ACCGGAUGUGCUUUCCGGUCUGCUGGGUCCGUGAGGACGAAACAG [A23C A26G] | 0.212 |
| ACCGGAUGUGCUUUCCGGUCUGAUGAGUCCGUGAGGACGACAAAG [A41C C43A] | 0.361 |
| ACGGGAUGUGCUUUCCGGUCUGAUGAGUCCGUGAGGACUAAACAG [C3G G39U] | 0.284 |
| ACCGGAUUUGCUUUCCGGUCUGAUGAGUCCUUGAGGACGAAACAG [G8U G31U] | 1.08 |
| ACCGGACGUGCUUUCCGGUCUGAUGAGUCCGUGAUGACGAAACAG [U7C G35U] | 0.439 |
| ACCGGAUGUGAUUUACGGUCUGAUGAGUCCGUGAGGACGAAACAG [C11A C15A] | 0.851 |
| ACCGUAUGUGCUUUCCGGUCUGAUGAGUCCGUGAAGACGAAACAG [G5U G35A] | 0.476 |
| ACCGGAUGUGCUUUCCGGUCUGAUGAGUCCGUGAGGACGAAAGUG [C43G A44U] | 0.359 |
| ACCGGAUGUGCUUUCUGGUCUGAUGAGUCCGUGAGGACGAAACAG [C16U] | 0.983 |
| ACCGGAUGUGCUUUCCGGUCUGGUGAGUCCGUGAGGACGAAACAC [A23G G45C] | 0.33 |
| ACCGGAUGUGCUUUCAGGUCUGAUGCGUCCGUGAGGACGAAACAG [C16A A26C] | 0.433 |

| Variant | self-cleavage |
| --- | --- |
| ACUGGAUGUGCUUUCCGGUCUGAUGAGUCCGUGUGGACGAAACAG [C3U A34U] | 0.947 |
| ACCGGAUGUGCUAGCCGGUCUGAUGAGUCCGUGAGGACGAAACAG [U13A U14G] | 1.16 |
| ACCAGACGUGCUUUCCGGUCUGAUGAGUCCGUGAGGACGAAACAG [G4A U7C] | 0.294 |
| ACCGGAUGUCCUUUCCCGUCUGAUGAGUCCGUGAGGACGAAACAG [G10C G17C] | 0.614 |
| ACCGGAUGUGCUUUCCGGUCUGAUGAGUUCGUGAUGACGAAACAG [C29U G35U] | 0.744 |
| ACCGGAUGUGCUUUCCGGUCUGAUGAGUCCGUGAGCAAGAAACAG [G36C C38A] | 0.403 |
| ACCGGAUUUGCUUUCCGGUCUGAUGGGUCCGUGAGGACGAAACAG [G8U A26G] | 0.351 |
| ACCGGAUGUGCUUUCCGGUCUGAUGAGUCCGUGAGGUCAAAACAG [A37U G39A] | 0.386 |
| ACCGGAUGUGCUUUCCGGUCUGAUGAGUCCGUGUGCACGAAACAG [A34U G36C] | 0.406 |
| ACCGGAUGUGCUUUCCGGGCUGAUGAGUCCGUGAGGACGAAUCAG [U19G A42U] | 0.345 |
| ACCGGAUGUGCCUUCCGGUAUGAUGAGUCCGUGAGGACGAAACAG [U12C C20A] | 0.449 |
| ACCGGAUGUGCUUUCCGGUCUGAUGAAUCCGUGAGGACGAUACAG [G27A A41U] | 0.319 |
| ACCGGAUGUGGUUUCCGGUCUGAUGAGUCCGGGAGGACGAAACAG [C11G U32G] | 1.19 |
| ACCGGAUGUGCUUUCAGGUCUGAUGAGUGCGUGAGGACGAAACAG [C16A C29G] | 0.566 |
| ACCGGAUGUGCUUCCCGAUCUGAUGAGUCCGUGAGGACGAAACAG [U14C G18A] | 0.409 |
| ACCGGAUGUGCUUUCCUGUCUGAUGAGUCCGUGAUGACGAAACAG [G17U G35U] | 0.454 |
| ACCCGUUGUGCUUUCCGGUCUGAUGAGUCCGUGAGGACGAAACAG [G4C A6U] | 0.281 |
| ACCGGAUGUGGUUUCCCGUCUGAUGAGUCCGUGAGGACGAAACAG [C11G G17C] | 0.273 |
| ACCGGAUGUGCUUUCCUGUCUGAUGAGUCCUUGAGGACGAAACAG [G17U G31U] | 0.834 |

| Variant | self-cleavage |
| --- | --- |
| ACCGGCUGUGCUUUCCGGUCUGAGGAGUCCGUGAGGACGAAACAG [A6C U24G] | 0.511 |
| ACCGGAUGUUCUUUCCGGUCUGAUGAGUCCGUGUGGACGAAACAG [G10U A34U] | 0.864 |
| ACCGGAUGUGCUUUCCGGUCUGAUUAGUCCGUGUGGACGAAACAG [G25U A34U] | 0.294 |
| ACCGGAUGUGCUUUUCGGUCUGAUGAGUCCGUGAGGAUGAAACAG [C15U C38U] | 0.82 |
| ACCGGAUGUGCUUUCCGGUCUGAUGAGACCGUGAGGACGAAAUAG [U28A C43U] | 0.381 |
| ACCGGCUGUGCUUUCCGGUCUGAUGAGUCCGUCAGGACGAAACAG [A6C G33C] | 0.472 |
| ACCGGGUCUGCUUUCCGGUCUGAUGAGUCCGUGAGGACGAAACAG [A6G G8C] | 0.708 |
| ACCGGAUGUGCUUUCCGUUCUGAUGAGUCCGGGAGGACGAAACAG [G18U U32G] | 0.802 |
| ACCGGAUGUGCUUUCCGGUCUGAUGAGUCCGUGAGGACAAAACUG [G39A A44U] | 0.342 |
| ACCGGAUGUGUUUUCCGGUCUGAUAAGUCCGUGAGGACGAAACAG [C11U G25A] | 0.39 |
| ACCGGAUGUGCUUUCCGGUCUGAUGAGCCCAUGAGGACGAAACAG [U28C G31A] | 1.03 |
| ACCGGAUGUGCUUACCGGUCUGAUGAGUCCCUGAGGACGAAACAG [U14A G31C] | 1.01 |
| ACCGGAUUUGCUUUCCGGUCGGAUGAGUCCGUGAGGACGAAACAG [G8U U21G] | 0.571 |
| ACCGGAUGUGCUUUCCGGUCGGAUGAGGCCGUGAGGACGAAACAG [U21G U28G] | 0.564 |
| ACCGGAUGUGCUUUCCCCUCUGAUGAGUCCGUGAGGACGAAACAG [G17C G18C] | 0.347 |
| ACCGGAUGUGCUUUCCGGACUGAUGAGUCCGUGACGACGAAACAG [U19A G35C] | 0.422 |
| ACCGGAUGUGCGUUCCGAUCUGAUGAGUCCGUGAGGACGAAACAG [U12G G18A] | 0.583 |
| ACCGGAUGUGCUUUUCGGUCUGAUGAGUCCGUGCGGACGAAACAG [C15U A34C] | 0.98 |
| ACCGGAUGUGCUUUCCGGUCAGAUGAGUCCCUGAGGACGAAACAG [U21A G31C] | 0.532 |
